Target: IL-2-phaP fusion polypeptide on the surface of polymer particles (PHA granules), P04351
Sequence (P04351 whole entry, looked up, the tested form may be a part): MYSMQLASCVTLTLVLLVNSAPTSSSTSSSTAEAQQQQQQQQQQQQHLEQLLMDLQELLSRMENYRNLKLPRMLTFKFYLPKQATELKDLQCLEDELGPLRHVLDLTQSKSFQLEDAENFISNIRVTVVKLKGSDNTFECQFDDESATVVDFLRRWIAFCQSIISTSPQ

B1: bovine enterokinase (protein)
chain: IVGGSDSREGAWPWVVALYFDDQQVCGASLVSRDWLVSAAHCVYGRNMEPSKWKAVLGLHMASNLTSPQIETRLIDQIVINPHYNKRRKNNDIAMMHLEMKVNYTDYIQPICLPEENQVFPPGRICSIAGWGALIYQGSTADVLQEADVPLLSNEKCQQQMPEYNITENMVCAGYEAGGVDSCQGDSGGPLMCQENNRWLLAGVTSFGYQCALPNRPGVYARVPRFTEWIQSFLH
fluorescence of IL-2-phaP particles stained with anti-IL-2-PE after 1 hr incubation with enterokinase (FACS): a smaller shift in fluorescence intensity indicates that a proportion of IL-2 has been cleaved from the particles | fluorescence of IL-2-phaP particles stained with anti-IL-2-PE after 16 hours incubation with enterokinase (FACS): no IL-2 is detectable on the surface of the polymer particles, indicating the IL-2 has been cleaved from the polymer particles
